# Reference: the DeepSol protein solubility set
# Assay: soluble on expression in E. coli; label from the status in PepcDB or PDB records
row,Sequence,soluble on expression in E. coli
1,MNRIEHYHDWLRDAHAMEKQAESMLESMASRIDNYPELRARIEQHLSETKNQIVQLETILDRNDISRSVIKDSMSKMAALGQSIGGIFPSDEIVKGSISGYVFEQFEIACYTSLLAAAKNAGDTASIPTIEAILNEEKQMADWLIQNIPQTTEKFLIRSETDGVEAKK,soluble
2,MNRISTSSVNSSFSYSAPAEEAQNRVSSAPTNSSPPGTTTAVAQASEGQKKPGAVLSMQAQRLRQLCESSSYQYRQNALLAKSFDAQRLDINTQAGPSNSPHLNALNKLQQRDFKPAAGGLEIPFTPKSLLGGGKRVYQIGSSSRDVQVCPRGAGAALRQEIADKQLMVNHLTDELQDAIDEANQAEIANTSQQLRQARSDLAELQRRFAVLGNEDRRINQ,not soluble
3,MNRLERIIQLVSQKKKIDVNSLSEQLDVSKVTIRKDLDKLESKGLLRREHGYAVLNSGDDLNVRLSYNYNIKRRIAEKAAELVQDNDTIMIESGSTCALLAEVLCQTKRNIKVITNSCFIANYIRQYSSCQIILLGGYYQPNSEVTVGPLLKEMISLFHVNRVFVGTDGFNKDLGFMGKDMMRSEGVRYMADAAEEVVILTDSSKFSKTSLVHQLSLADVNRVITDQALDKQTQELLSASGLVLDFVSLEHHHHHH,not soluble
4,MNRSRLLLLGAEAVAQGAIDAGLSGVYAYPGTPSTEITEYIQRSAPARQSGIRSAWSANEKTAYEAALGMSYAGKRSLVCMKHVGLNVAADAFMNSAITGVNGGLVLAVADDPSMHSSQNEQDSRVYGRFAMVPVLEPASQQELYDAMFHAFELSEAVRLPVIMRMTTRLSHSRAGVELKASLEQNPLSAE,not soluble
5,MNRVYCTARSFRTSVKSNGWVHKWSRFKRWQEMQAAHVENVQEKQRNKNFIRLPTGLYITPERPDDLNPKKAPADMTRKDTGQLPMELLTWHTQMRYVDHSIDNIKRYRRYKKFQHMQYDQRVIPERLLFLGPDLAAAHFLVHRGAAVKFVGDDNWYKKDKWNRYSLPGRKVDNLFIEAIDASGTQIMFEGLENLENLQKLRLLRLANSEYVDDWCIGRIGGLLPNLEMLDLSGCHRISSKGLMGLKASKNLKFLRLEGLSGIRNLGKSALILEDLLPKLQILGMDYELSFRQIEAENRLLEQERVVLDGRGNAFVEDDNSRLFLVMSTSSDDKAVTDDHDNPIMTSTVRREIPKMDDAEFEEINALSGGKLRHLLVGSPSGYEWTETTERILEHEAELNLTDNVITDPKMLPRGKRPEFELPEHRSRLEDAKAQFLKEFGDFEENSDKEQLKSH,not soluble
6,MNSALDFAFPATFPVKSSSVGGHRIASPGFSSRLRLCSLPPSSSIKAESCLKRDVHRQRSSLESMFCYDKPIPEEIIEEPVGLSMSEREIGDNQRCTCCEAKGALLCSTCSGTGLYVDSIMESQGIIVKVRCLGCGGSGNIMCKLCGGRGHVGH,not soluble
7,MNSFKKFLNKKRVQNHFKKSGEGVRLSSGESSSQPSAHAGAAQGGQIDRVAAADIAAQAAFKRMQKNEPQQNAGKRRIQMIAKRELEEERRQVEDLNISGTSSLQQPDREQHLEHSSAISRVLYTSELLGEHHIRSKADLLEDIKNFLSDQISEADDENDKVIAAVLMLYSLNKKHPKETAIETICKYCQNILEHPGEDKYKSIRLGNKAFQERVASVVGGRAFLEAVGFTEKSEGEDKFLVFTKPSDVHLVEALEALKDGQAVPIKVARNLEIFKLKEGQKPKAPKLADDFYNLSTAELKAEQRNKEMQVERMLTLRTKEMRQKDEQMTNYRYKYTLIRVRLPGNLLMQGVFGCHEPFSAVRVFVASTLSDALSTSEFTLRDAASQLVEDESASLAQLSLAPAALLHVVFAENLSDYGQIVADEHIEIIQELEASD,not soluble
8,MNSGRPETMENLPALYTIFQGEVAMVTDYGAFIKIPGCRKQGLVHRTHMSSCRVDKPSEIVDVGDKVWVKLIGREMKNDRIKVSLSMKVVNQGTGKDLDPNNVIIE,soluble
9,MNSNRTPSQKVLARQEKIKAVALELFLTKGYQETSLSDIIKLSGGSYSNIYDGFKSKEGLFFEILDDICKKHFHLIYSKTQEIKNGTLKEILTSFGLAFIEIFNQPEAVAFGKIIYSQVYDKDRHLANWIENNQQNFSYNILMGFFKQQNNSYMKKNAEKLAVLFCTMLKEPYHHLNVLINAPLKNKKEQKEHVEFVVNVFLNGINSSKA,soluble
10,MNSPDRFRLTSCDVTPDRTGMFTAIWTCYGRLAPGWRVVFGIESGTDRLEIEAVADAGVCAPLPDGVADAWLICNGLLIAVLTPELGARLTGGSGYLRFSSSPPHDAVSSTPAHVHRAGIPPRG,not soluble
11,MNSRIMFIGGVPGVGKTSISGYIARNTDIDIVLSSDYLREFLRPFAPQESHLETSVYDAWKFYGDMSDDNIIRGYLDQARPIMGGINRVIARALANGEDLIIESLYFVPDMMDEMVLKNAFLAYVYIDDPDLHRSRLEDRINYTHRNSPGSRLAAHLKEYRTIMDYSMDMARGRGIGLYSTDDYALARQRLLDDFRKFVDRR,not soluble
12,MNSVGEACTDMKREYDQCFNRWFAEKFLKGDSSGDPCTDLFKRYQQCVQKAIKEKEIPIEGLEFMGHGKEKPENSSLEHHHHHH,not soluble
13,MNTFVFLPLAFFVLLESFEAQEPPGPTARLNMLDNYMKRLNLTDIHFSDPGGIVKVDTVVNKYQPLTEEEIIRKMKKTVNDTAYDIANGKDPDLIEKLDKKTVQLPKPIRSRPQF,not soluble
14,MNTGFANPSAKPDDPTDPRARRDHGGGLDGAMRRYGGQRADWIDLSTGINPLPYPVGTLLPEDWTALPDHGAFGELIRAARAFWHLPEAAAVLPAPGASALIARIPALADPARVRITQPTYNEHAAAFTAHGWQVVADGPAEARVIVHPNNPDGRIWSEAEAEGALCVIDESFGDVAPETSLAHLAARPGTVVLKSFGKFWGLAGLRLGFAVALPETIARLNDLTGPWAVSGPALRIGTRALSDTAWAEETRIRLAQEAARLDTLMSAGGVQVLGGTDLFRLYQVDDAAAWQDRLARARIWSRIFPYSDRFLRLGLPPAEGWDRLESAL,not soluble
15,MNTPHPSAPVLVAVANPTIHPEALHIVAATGRECIDTTDPREISRHAHRVAAMLVDATTAPHMASLPPNTRVMYLEPEPGPIDYEKAMKSGAELAVIVPAQSPELLKALGRRDVAPRAGKYPVIAVIGAAGGAGTSTLCAALAADYREALLIDTEHFSGGIDLLLGKEDDPGIRWDDVPDSGEKVPASELLASLPCVDPNVRILAATRDSVTHVAEQQLRGVVESVRGTCPIIIDVQRHHVLFESCVDLADLVVLLVPAEIRSVAAAAQLVPWLRRRKVDVVGVLRERAWASVDREEVARVTGADIVATVPTVKGLPREVELGGMATIPRALRRPLAQLRSHIDG,not soluble
16,MNTVRSEKDSMGAIDVPADKLWGAQTQRSLEHFRISTEKMPTSLIHALALTKRAAAKVNEDLGLLSEEKASAIRQAADEVLAGQHDDEFPLAIWQTGSGTQSNMNMNEVLANRASELLGGVRGMERKVHPNDDVNKSQSSNDVFPTAMHVAALLALRKQLIPQLKTLTQTLNEKSRAFADIVKIGRTHLQDATPLTLGQEISGWVAMLEHNLKHIEYSLPHVAELALGGTAVGTGLNTHPEYARRVADELAVITCAPFVTAPNKFEALATCDALVQAHGALKGLAASLMKIANDVRWLASGPRCGIGEISIPENEPGSSIMPGKVNPTQCEALTMLCCQVMGNDVAINMGGASGNFELNVFRPMVIHNFLQSVRLLADGMESFNKHCAVGIEPNRERINQLLNESLMLVTALNTHIGYDKAAEIAKKAHKEGLTLKAAALALGYLSEAEFDSWVRPEQMVGSMKAGRHHHHH,soluble
17,MNVASRVVVNADRVKGTINRNIYGHFSEHLGRCIYEGLWVGEDSPIPNTNGIRNDVLEALKQMKIPVLRWPGGCFADEYHWKDGVGPREKRKRMVNTHWGGVIENNHFGTHEFMMLCELLGCEPYISGNVGSGTVQEMSEWVEYITFDGESPMANWRRENGREKPWRIKYWGVGNQNWGCGGNMRAEYYADLYRQFQTYLRNYGDNKLHKIACGANTADYHWTEVLMKQAAPFMHGLSLHYYTVPGPWEKKGPATGFTTDEWWVTLKKALFMDRLVTKHSAIMDVYDPDKRIDLIVDEWGTWYDVEPGTNPGFLYQQNSIRDALVAGATLHIFHRHCDRVRMANIAQLVNVLQSVILTEGERMLLTPTYHVFNMFKVHQDAELLDTWESVERTGPEGELPKVSVSASRAADGKIHISLCNLDFETGASVDIELRGLNGGVSATGTTLTSGRIDGHNTFDEPERVKPAPFRDFKLEGGHLNASLPPMSVTVLELTAG,soluble
18,MNVCRLYGEELQKSQSNTFEDYFNRSEVTYRDGGEERTLSVLYLRHFEAALLDWLPYESDPLFTANGRDIHLRDIIALVCLWKNPAYRQRKRVYIHDEEELRRYFAEVDAKTLQALVSEWAETGECRLPERSA,not soluble
19,MNVFKTQTLLCPSGVHSRPEDHDETPFLCSKAQSVTVVAFLVARLLATLATHQMTSHTEGLRKGGGRKDTQLMKGQCSAIKVIFWPGCLPQPRMHSRLHIRSINKGGQLRPTGCNK,soluble
20,MNVGILGIGRYVPEKVVTNHDLEKIMDTSDEWIRTRTGIAERRIADDTIDTSYMAVEASKKALEDAGISGEDIDLILVATVTPDRAFPAVACVIQEAIGAKHAAAMDLSAACAGFMYGMITAQQFIQTGTYKNVLVVGSDKLSKIVDWNDRNTAVLFGDGAGAIVMGAVSEGKGVLSFELGADGSGGKHLYQDEYVMMNGREVFKFAVRQLGDSCLRVLDKAGLTKEDVDFLVPHQANIRIMESARERLNLPQEKMSMTIEKFGNTSASSIPIAMVEELQNGRIQDGDLIILVGFGGGLTWGAVALRWGK,not soluble
21,MNVINETANVLKLETGSVTSAKGFSAVGIHTGVKRKRKDLGAIVCEVPASSAAVYTLNKVQAAPLKVTQESIAVEGKLQAMIVNSGIANACTGKRGLDDAYTMRAVGAETFHIPEHYVAVTSTGVIGEFLPMDVITNGIRQLKPEATIEGAHAFNEAILTTDTVEKHTCYQTIVNGKTVTVGGVAKGSGMIHPNMATMLSFVTTDANIDHGHLQGALSAITNETFNRITVDGDTSTNDMVVVMASGLAENEALTPEHPDWANFYKALQLACEDLAKQIARDGEGATKLIEVEVTGAANDQEAGMVAKQIVGSDLVKTAIYGADANWGRIICAIGYSGCEVNQETIDIAIGPIVTLKQSEPTGFSEEEATAYLKEADPVKISVNLHIGNGTGKAWGCDLTYDYVRINAGYRTLEHHHHHH,not soluble
22,MNVIRTEIEDVLILEPRVFGDDRGFFYESFNQSAFEHILGYPVSFVQDNHSRSSKNVLRGLHFQRGEYAQDKLVRCTHGAVFDVAVDIRPNSVSFGKWVGVLLSADNKQQLWIPKGFAHGFLVLSDIAEFQYKTTNYYHPESDCGICWNDERIAIDWPQTSGLILSPKDERLFTLDELIRLKLIA,not soluble
23,MNVMMQKVHGSENDFFLLDETQFERSLTAEEIEQLRIQLCSRETGLLAGADGLLLVGEGTHGTSNARMRVINSDGSEASMCGNGLRTVARYLAEKNQEKSFTVETMFADLKVRQAPNLAEEVATYQVEISPVSFEAVTIPMHLGVQTLIDEIVPALSNTIRFTAVAVPNPHLVAFVDHETLNGPEFERIATYVNNENPYFPEGINVSFVEILGKNQLFVRTYERGVGFTSACGTAMCASSLLYTLLKDGVFYEEITVKNTGGMVKTVVHETSDGSYWMELIGNATITHLIEGSLTDLLNGAFEKITITETNEQKHYQEFLQTLSQK,not soluble
24,MNWNKRLLDTPIIGDITKKIVSAKASREAHNISDHFTQFLQPCVAVSQTLKEEAFKIRHNVYCEELAFEEVRDNGQETDEFDHQSMFSLIKHKPSGTFTSCVRLVTSSGPDELLPIEKYCMGSITNEELSPKRFNRNEIAEISRLAVKSDFRRRKADNYKGSGTGVISEITYSETELRCFPFIAIGLYMAAATMSMNTGIRHVYVMMEPRLARSMKFIGINFQQLGPPVDYHGLRAPYYINPEIFMKNLSPGFKSLFSIIEEDICSQLNQLDLA,not soluble
